# Tests used:
# [1] = system: BALF2 wild type (Epstein-Barr virus (EBV)); assay: fluorescence anisotropy; conditions: not in material (Methods absent); anisotropy titrations in triplicate
# [2] = system: BALF2 Δ52 (Epstein-Barr virus (EBV)); assay: fluorescence anisotropy; conditions: not in material (Methods absent); anisotropy titrations in triplicate
substance,measurement,setting,value
16-mer ssDNA,Kd,[1],232 nM
same,Kd,[2],1040 nM

# — paper doi:10.1101/2025.06.25.661518
